# Source: EP4455161A1 (ONO Pharmaceutical Co., Ltd., dated 2024)
# T1: pCRMP2 peptide H-EVSV(pT)PKTV(pT)PASSAKT(pS)PAKQQC-NH2 (phosphothreonine at T509 and T514, phosphoserine at S522 (CRMP2 numbering); C-terminal amide)
# T1 construct: also called pCRMP2 peptide containing three phospho-sites T509, T514 and S522
# T1 peptide: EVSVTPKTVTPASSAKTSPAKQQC
# T2: CRMP2 peptide H-EVSVTPKTVTPASSAKTSPAKQQC-NH2 (C-terminal amide)
# T2 peptide: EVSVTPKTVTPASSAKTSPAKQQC
# T3: pCRMP2 peptide H-TVTPASSAKT(pS)PAKQQAPPVRC-NH2 (phosphoserine at S522 (CRMP2 numbering); C-terminal amide)
# T3 construct: also called pCRMP2 peptide containing a single S522 phospho-site
# T3 peptide: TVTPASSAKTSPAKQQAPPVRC
# T4: CRMP2 peptide TVTPASSAKTSPAKQQAPPVRC-NH2 (C-terminal amide)
# T4 peptide: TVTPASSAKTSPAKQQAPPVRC
# T5: CRMP2 peptide 128 (TPKTVTPASSAKTSP) (human)
# T5 construct: 15-mer spotted on a cellulose membrane array
# T5 peptide: TPKTVTPASSAKTSP
# T6: CRMP2 peptide 129 (VTPASSAKTSPAKQQ) (human)
# T6 construct: 15-mer spotted on a cellulose membrane array
# T6 peptide: VTPASSAKTSPAKQQ
# Tests used:
# [1] = biological target: T1, pCRMP2 peptide …; experiment: ELISA
# [2] = biological target: T2, CRMP2 peptide …; experiment: ELISA
# [3] = biological target: T3, pCRMP2 peptide …; experiment: ELISA
# [4] = biological target: T4, CRMP2 peptide TVTPASSAKTSPAKQQAPPVRC-NH2; experiment: ELISA
# [5] = biological target: T7, Peptide 4152961: VCEVSV(p)T509… (phosphothreonine at T509 (CRMP2 numbering)); experiment: direct ELISA on coated peptide (Fig. 5)
# T7 construct: also called CRMP2 peptide with phosphorylation at T509
# [6] = biological target: T8, Peptide 4152963: …(p)S522PAKQQA (phosphoserine at S522 (CRMP2 numbering)); experiment: direct ELISA on coated peptide (Fig. 5)
# T8 construct: also called CRMP2 peptide with phosphorylation at S522
# [7] = biological target: T9, Peptide 4152960: …; experiment: direct ELISA on coated peptide (Fig. 5)
# T9 construct: also called non-phosphorylated CRMP2 peptide
# [8] = biological target: T5, CRMP2 peptide 128 (TPKTVTPASSAKTSP); experiment: overlapping peptide array
# [9] = biological target: T6, CRMP2 peptide 129 (VTPASSAKTSPAKQQ); experiment: overlapping peptide array
# [10] = biological target: T10, recombinant human full length CRMP1 (human, UniProt Q14194 1-572); experiment: direct ELISA, recombinant human CRMP1-5 coated at 5 µg/mL
# T10 construct: mature
# T10 sequence (Q14194 whole entry): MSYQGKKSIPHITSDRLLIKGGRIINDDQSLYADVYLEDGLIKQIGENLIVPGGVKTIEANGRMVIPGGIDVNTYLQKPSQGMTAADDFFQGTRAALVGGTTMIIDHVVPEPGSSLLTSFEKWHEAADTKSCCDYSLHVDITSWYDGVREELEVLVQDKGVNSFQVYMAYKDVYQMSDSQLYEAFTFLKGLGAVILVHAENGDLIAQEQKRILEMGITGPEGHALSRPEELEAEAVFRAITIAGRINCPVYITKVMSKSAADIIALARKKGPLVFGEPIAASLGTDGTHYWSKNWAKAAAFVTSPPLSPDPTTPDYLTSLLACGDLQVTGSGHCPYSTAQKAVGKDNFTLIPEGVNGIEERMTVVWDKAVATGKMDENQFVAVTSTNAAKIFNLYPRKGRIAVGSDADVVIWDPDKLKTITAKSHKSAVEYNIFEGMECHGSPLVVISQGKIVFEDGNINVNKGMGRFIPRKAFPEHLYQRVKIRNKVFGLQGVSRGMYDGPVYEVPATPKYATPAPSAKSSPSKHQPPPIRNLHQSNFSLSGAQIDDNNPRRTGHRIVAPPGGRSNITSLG
binder,measurement,setting,value
"NI-504.3E7 (antibody, human IgG1, V domains shown, VH_3E7 + VL_3E7) VH: EVQLVETGGGFVQPGGSLQLSCAVSGFPYSGTSFHWVRQVSGKGLEWIGRIRSKSDNYETSYTESLKGRFIVSRDDSKNMVRLHLYSLRTEDTALYYCTTGIIVVDTSYLDHWGRGTLVTVSS VL: SYELTQPPSASVSPGQTARITCSGAALPKKYAYWYQLKSGQAPVLVIYEDTKRPSGIPERFSGSSSGTLATLTINGALVEDEADYYCYSTDSSGDVWVFGGGTKLTVL",binding result,[1],binds
same,binding result,[2],binds
same,binding result,[3],binds
same,binding result,[4],binds
same,binding result,[5],binds
same,binding result,[6],binds
same,binding result,[7],binds
same,binding result,[8],binds
same,binding result,[9],binds
same,EC50,[10],69 nM
